B1: SiaT19: sialyltransferase of Photobacterium leiognathi JT-SHIZ-145, acc. BAF91416, SEQ ID NO: 30 (protein, listed as Photobacterium leiognathi)
chain: MNDNQNTVDVVVSTVNDNVIENNTYQVKPIDTPTTFDSYSWIQTCGTPILKDDEKYSLSFDFVAPELDQDEKFCFEFTGDVDGKRYVTQTNLTVVAPTLEVYVDHASLPSLQQLMKIIQQKNEYSQNERFISWGRIRLTEDNAEKLNAHIYPLAGNNTSQELVDAVIDYADSKNRLNLELNTNTGHSFRNIAPILRATSSKNNILISNINLYDDGSAEYVSLYNWKDTDNKSQKLSDSFLVLKDYLNGISSEKPNGIYSIYNWHQLYHSSYYFLRKDYLTVETKLHDLREYLGGSLKQMSWDTFSQLSKGDKELFLNIVGFDQEKLQQEYQQSELPNFVFTGTTTWAGGETKEYYAQQQVNVVNNAINETSPYYLGREHDLFFKGHPRGGIINDIILGSFNNMIDIPAKVSFEVLMMTGMLPDTVGGIASSLYFSIPAEKVSFIVFTSSDTITDREDALKSPLVQVMMTLGIVKEKDVLFWC
B2: SiaT9: sialyltransferase of Vibrio sp. JT-FAJ-16, acc. BAF91160, SEQ ID NO: 2 (protein, listed as Vibrio sp.)
chain: MNNDNSTTTNNNAIEIYVDRATLPTIQQMTKIVSQKTSNKKLISWSRYPITDKSLLKKINAEFFKEQFELTESLKNIILSENIDNLIIHGNTLWSIDVVDIIKEVNLLGKNIPIELHFYDDGSAEYVRIYEFSKLPESEQKYKTSLSKNNIKFSIDGTDSFKNTIENIYGFSQLYPTTYHMLRADIFDTTLKINPLRELLSNNIKQMKWDYFKDFNYKQKDIFYSLTNFNPKEIQEDFNKNSNKNFIFIGSNSATATAEEQINIISEAKKENSSIITNSISDYDLFFKGHPSATFNEQIINAHDMIEINNKIPFEALIMTGILPDAVGGMGSSVFFSIPKEVKNKFVFYKSGTDIENNSLIQVMLKLNLINRDNIKLISDI

Experiments:
[1] = In vivo screening in E. coli #1363/#1730 with lactose as acceptor, sialyllactose identified by TLC; assay type: cell-based, Escherichia coli BL21(DE3); conditions: 1.5 mM lactose, 72 to 96 hours, qualitative via TLC
Method in brief: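 E. coli BL21(DE3) #1363/#1730 expressing sialyltransferases were grown at 30 °C in mineral salts medium with 2% glucose and induced with 0.3 mM IPTG. After 1 h, 1.5 mM lactose was added, plus 1.5 mM sialic acid for #1730, and incubation ran 72–96 h. Cell lysates were analysed by silica TLC with thymol staining.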

[2] = Batch fermentation of LNT-producing E. coli BL21(DE3) #2130 expressing sialyltransferases, TLC of intracellular fraction; assay type: cell-based, Escherichia coli BL21(DE3); conditions: strain #2130, 3 mM lactose, 3 mM sialic acid, 48 hours after induction, validated by mass spectrometry
Description: Escherichia coli BL21(DE3) strain #534 was used to construct a lacto-N-tetraose (LNT) producing strain. The β-1,3-N-acetylglucosaminyltransferase gene IgtA from Neisseria meningitidis MC58 (acc. no. NP_274923) was codon-optimized for expression in E. coli and prepared synthetically by gene synthesis. Together with the gene galT, encoding a galactose-1-phosphate uridylyltransferase from E. coli K-12 substr. MG1655 (acc. no. NP_415279), that was similarly obtained by gene synthesis, IgtA was inserted by transposition (SEQ ID NO: 188) using plasmid pEcomar-IgtA-galT. To enhance de novo synthesis of UDP-N-acetylglucosamine, genes encoding L-glutamine:D-fuctose-6-phosphate aminotransferase (glmS), phosphoglucosamine mutase from E. coli K-12 substr. MG1655 (glmM) and N-acetylglucosamine-1-phosphate uridyltransferase/glucosamine-1-phosphate acetyltransferase (glmU) from E. coli K-12 substr. MG1655 (acc. no. NP_418185, NP_417643, NP_418186, respectively) were codon-optimized and obtained by gene synthesis. The operon glmUM was cloned under the control of constitutive tetracyclin promoter Ptet while glmS was cloned under the constitutive PT5 promoter. […]

Row | Molecule | Production of sialyllactose in-vivo [1] | Intracellular formation of sialyllacto-N-tetraose [2]
1 | B1 | 6′-SL | LST-b
2 | B2 | 3′-SL | LST-a

— patent US12692524B2, “Sialyltransferases and their use in producing sialylated oligosaccharides” (Chr. Hansen A/S, priority 2017, dated 2026)
